The experiment deals with DEAD-box RNA helicase DDX6 (human (endogenous in 293T)) (UniProt P26196). The experiment can be described thus: proximity ligation.
Sequence of UniProt P26196 (P26196 whole entry): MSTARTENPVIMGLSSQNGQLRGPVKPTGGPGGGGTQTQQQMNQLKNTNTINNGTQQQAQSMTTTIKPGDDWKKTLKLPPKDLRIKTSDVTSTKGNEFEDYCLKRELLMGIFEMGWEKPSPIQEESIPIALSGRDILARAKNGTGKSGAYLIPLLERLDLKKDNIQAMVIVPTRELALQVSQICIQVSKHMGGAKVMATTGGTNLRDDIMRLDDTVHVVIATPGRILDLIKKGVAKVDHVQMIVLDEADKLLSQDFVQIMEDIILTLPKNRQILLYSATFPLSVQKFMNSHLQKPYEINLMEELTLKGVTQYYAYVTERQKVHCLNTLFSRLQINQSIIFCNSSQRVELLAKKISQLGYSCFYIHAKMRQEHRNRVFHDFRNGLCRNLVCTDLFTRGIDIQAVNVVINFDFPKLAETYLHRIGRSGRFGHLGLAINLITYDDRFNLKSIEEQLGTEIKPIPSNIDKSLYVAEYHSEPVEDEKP

“G2A Gag (HIV-1 Gag with glycine 2 changed to alanine, expressed from LAI provirus) (natural protein)” registered a PLA spots per Z stack image (PLA spots per Z stack image) of 56 and a PLA spots per cell (PLA spots per cell) of 50. “HIV-1 Gag, wild type (expressed from LAI provirus) (natural protein)”: the PLA spots per cell (PLA spots per cell) stood at 50.

The values are drawn from publication doi:10.1101/183855.
